Values quoted from earlier work, collected in patent publication US12686665B2, “Bicyclic fused ring derivative or salt thereof and pharmaceutical composition comprising same” (YUHAN CORPORATION, priority 2021, dated 2026).

System: NASH patients with advanced liver fibrosis and liver cirrhosis
Conditions: after 4 years of the treatment; cited from earlier work

B1: Simtuzumab: a monoclonal antibody against LOXL2 (antibody, chains of the INN, looked up, V domains shown)
VH: QVQLVQSGAEVKKPGASVKVSCKASGYAFTYYLIEWVRQAPGQGLEWIGVINPGSGGTNYNEKFKGRATITADKSTSTAYMELSSLRSEDTAVYFCARNWMNFDYWGQGTTVTVSS
VL: DIVMTQTPLSLSVTPGQPASISCRSSKSLLHSNGNTYLYWFLQKPGQSPQFLIYRMSNLASGVPDRFSGSGSGTDFTLKISRVEAEDVGVYYCMQHLEYPYTFGGGTKVEIK
histological efficacy: failure to prove histological efficacy
